{"source": "patent US20150239980A1", "about": "(NEOTOPE BOSCIENCES, published 2015)", "binders": {"B1": {"name": "mouse anti-human MCAM monoclonal antibody clone 1749.1.3 (antibody, V domains shown)", "VH": "DVKLVESGGDLVKPGGSLKLSCAASGFTFSSYIMSWVRQTPEKRLEWVATISSGGSSTYYPDSVKGRFTISRDNAKNTLYLQMSSLKSEDTAMYYCTRDDDYDVKVFAYWGQGTLVTVSA", "VL": "DIVMSQSPSSLAVSAGEKVTMNCKSSRSLLNSRIRKNYLAWYQQKPGQSPKLLIYWASTRESGVPDRFTGSGSGTDFTLTISSVQAEDLAVYYCKQSYNLLTFGAGTKLELK", "notes": "mouse hybridoma antibody; also called rodent 1749; murine 1749.1.3 anti-MCAM antibody"}}, "key": {"[1]": {"molecular_target": "T1, human MCAM domain 2 (amino acids 139-242), Fc-tagged (human, UniProt P43121 139-242)", "T1 sequence": "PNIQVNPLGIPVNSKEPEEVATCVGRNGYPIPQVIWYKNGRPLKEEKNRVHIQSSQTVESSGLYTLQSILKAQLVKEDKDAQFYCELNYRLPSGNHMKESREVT", "test": "ForteBio domain mapping as in Example 8"}, "[2]": {"molecular_target": "T2, human MCAM domain 3 (amino acids 244-321), Fc-tagged (human, UniProt P43121 244-321)", "T2 construct": "also called domain 3 of the human MCAM protein", "T2 sequence": "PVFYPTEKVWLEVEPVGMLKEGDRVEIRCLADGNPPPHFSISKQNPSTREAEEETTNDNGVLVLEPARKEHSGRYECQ", "test": "ForteBio domain mapping as in Example 8"}, "[3]": {"molecular_target": "T3, human MCAM domain 1 (amino acids 19-129), Fc-tagged (human, UniProt P43121 19-129)", "T3 construct": "also called MCAM Fc domain 1", "T3 sequence": "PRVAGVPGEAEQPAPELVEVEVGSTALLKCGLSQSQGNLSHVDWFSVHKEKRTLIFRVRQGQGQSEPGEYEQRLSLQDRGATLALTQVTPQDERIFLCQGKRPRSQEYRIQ", "test": "ForteBio domain mapping as in Example 8"}, "[4]": {"molecular_target": "T4, Recombinant human Fc-tagged MCAM IgG1-2A (human MCAM domains 1 and 2, amino acids 19-242) (human, UniProt P43121 19-242)", "T4 construct": "also called human MCAM IgG1-2A; MCAM Fc domains 1 and 2; not shown: human Fc tag", "T4 sequence": "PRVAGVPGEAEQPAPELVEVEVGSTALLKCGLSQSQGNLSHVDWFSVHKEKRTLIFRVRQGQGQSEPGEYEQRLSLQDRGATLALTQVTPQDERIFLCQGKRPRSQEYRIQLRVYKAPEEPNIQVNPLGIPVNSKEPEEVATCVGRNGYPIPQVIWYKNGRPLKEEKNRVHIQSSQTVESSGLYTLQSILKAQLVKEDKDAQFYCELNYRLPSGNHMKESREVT", "test": "ForteBio domain mapping as in Example 8"}, "[5]": {"molecular_target": "T5, human MCAM (melanoma cell adhesion molecule) expressed on transfected CHO cells (human, UniProt P43121 24-646)", "T5 construct": "also called hMCAM; CD146", "T5 chain": "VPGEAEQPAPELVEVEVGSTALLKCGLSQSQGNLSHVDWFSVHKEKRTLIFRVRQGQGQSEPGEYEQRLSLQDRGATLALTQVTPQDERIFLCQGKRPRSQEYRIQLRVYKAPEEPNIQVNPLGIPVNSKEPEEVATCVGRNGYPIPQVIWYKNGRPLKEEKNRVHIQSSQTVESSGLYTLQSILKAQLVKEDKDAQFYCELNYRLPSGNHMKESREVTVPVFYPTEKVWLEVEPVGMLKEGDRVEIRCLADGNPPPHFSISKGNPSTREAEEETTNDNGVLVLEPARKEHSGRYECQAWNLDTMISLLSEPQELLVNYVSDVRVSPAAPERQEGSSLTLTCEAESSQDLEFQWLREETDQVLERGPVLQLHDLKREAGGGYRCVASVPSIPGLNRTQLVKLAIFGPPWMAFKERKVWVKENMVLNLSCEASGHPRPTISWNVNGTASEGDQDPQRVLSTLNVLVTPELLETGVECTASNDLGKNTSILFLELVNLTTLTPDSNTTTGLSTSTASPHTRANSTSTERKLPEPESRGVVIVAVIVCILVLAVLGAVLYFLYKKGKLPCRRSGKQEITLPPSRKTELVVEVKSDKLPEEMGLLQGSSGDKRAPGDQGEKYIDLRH", "test": "laminin/FACS on hMCAM CHO cells, competitor laminin 411; Expt#2; vs rodent 1749", "procedure,_shortened": "(§1)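 Detection of cell-bound laminin used anti-laminin conjugated to AF650 after a wash step, the preceding incubation lasting 30-45 minutes. Signal was read on a flow cytometer.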"}, "recombinant hMCAM-His [6]": {"molecular_target": "T6, recombinant hMCAM-His (human, UniProt P43121 24-559)", "T6 construct": "not shown: His tag", "T6 chain": "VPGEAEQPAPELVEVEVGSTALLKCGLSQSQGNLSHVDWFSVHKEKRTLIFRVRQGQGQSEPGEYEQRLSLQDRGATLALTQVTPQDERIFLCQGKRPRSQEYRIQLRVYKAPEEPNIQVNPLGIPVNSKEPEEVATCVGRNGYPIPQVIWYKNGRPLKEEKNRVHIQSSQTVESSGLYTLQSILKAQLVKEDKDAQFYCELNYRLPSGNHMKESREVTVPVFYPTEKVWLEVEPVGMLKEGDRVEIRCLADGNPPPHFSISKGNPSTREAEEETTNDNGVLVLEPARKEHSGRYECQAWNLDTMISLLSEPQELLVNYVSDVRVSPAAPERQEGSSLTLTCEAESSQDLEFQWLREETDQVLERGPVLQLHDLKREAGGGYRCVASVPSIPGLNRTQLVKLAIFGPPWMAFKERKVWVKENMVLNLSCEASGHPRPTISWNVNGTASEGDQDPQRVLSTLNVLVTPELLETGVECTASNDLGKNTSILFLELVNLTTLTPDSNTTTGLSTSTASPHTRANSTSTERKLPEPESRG", "test": "competitive ELISA on hMCAM-His, competitor biotinylated rodent or chimeric 1749; Expt. #1; vs rodent 1749", "experimental": "ELISA plates were coated with recombinant hMCAM-His, and blocked with casein buffer to prevent non-specific binding. Biotinylated rodent or chimeric antibody was added at a subsaturating concentration, in the presence or absence of 3× increasing concentrations of unlabeled competitor (humanized antibody, rodent, or chimeric). After washing to remove unbound antibody, streptavidin HRP was added to allow detection of the biotinylated antibody. The ELISA was developed with TMB substrate and the OD450 was measured. The IC50 of the unlabeled competitor was determined using the GraphPad Prism5 software."}, "recombinant hMCAM-His [7]": {"molecular_target": "T6, recombinant hMCAM-His", "test": "ForteBio Octet Red, hMCAM-His analyte; Forte column 1; vs rodent 1749", "procedure,_shortened": "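Octet Red biolayer interferometry measured binding of hMCAMHis analyte at a range of concentrations to humanized antibodies bound to anti-human Fc sensors.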"}, "[8]": {"molecular_target": "T5, human MCAM (melanoma cell adhesion …)", "test": "laminin/FACS on hMCAM CHO cells, competitor laminin 411; Expt#1; vs rodent 1749", "procedure,_shortened": "as §1"}, "recombinant hMCAM-His [9]": {"molecular_target": "T6, recombinant hMCAM-His", "test": "competitive ELISA on hMCAM-His, competitor biotinylated rodent or chimeric 1749; vs rodent 1749"}}, "data": [{"binder": "B1", "values": [{"measurement": "binding result", "setting": "[1]", "result": "no binding"}, {"measurement": "binding result", "setting": "[2]", "result": "binds"}, {"measurement": "binding result", "setting": "[3]", "result": "no binding"}, {"measurement": "binding result", "setting": "[4]", "result": "no binding"}, {"measurement": "fold over rodent (blocking, laminin/FACS)", "setting": "[5]", "result": 1, "unit": "fold"}, {"measurement": "fold over rodent (competitive ELISA)", "setting": "recombinant hMCAM-His [6]", "result": 1, "unit": "fold"}, {"measurement": "fold over rodent (Forte affinity)", "setting": "recombinant hMCAM-His [7]", "result": 1, "unit": "fold"}, {"measurement": "fold over rodent (blocking, laminin/FACS)", "setting": "[8]", "result": 1, "unit": "fold"}, {"measurement": "fold over rodent (competitive ELISA)", "setting": "recombinant hMCAM-His [9]", "result": 1, "unit": "fold"}]}]}
